# Data as given in patent EP2283866A2.
# Molecular target: human HER2 (ErbB2) (human) (UniProt P04626)
# Assay: cell-based or functional assay
substance,measurement,value
murine monoclonal antibody 4D5 (ATCC CRL 10463),"inhibition of SK-BR-3 relative cell proliferation (crystal violet, 72 h, 5 ug/ml antibody)",56%
same,maximum inhibition of cell proliferation in SK-BR-3 cells,66%
